For test [1], the target named is T1, nucleoid occlusion protein Noc (wild type) (Bacillus subtilis (strain 168), UniProt P37524).
T1 chain: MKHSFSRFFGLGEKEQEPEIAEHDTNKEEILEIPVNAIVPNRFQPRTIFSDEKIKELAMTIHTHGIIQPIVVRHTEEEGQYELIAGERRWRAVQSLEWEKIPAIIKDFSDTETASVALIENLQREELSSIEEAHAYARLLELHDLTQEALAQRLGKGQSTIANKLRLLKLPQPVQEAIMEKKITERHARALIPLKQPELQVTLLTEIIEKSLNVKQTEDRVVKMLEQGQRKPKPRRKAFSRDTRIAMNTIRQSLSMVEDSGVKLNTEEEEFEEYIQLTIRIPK
The experiment in a line: QCM-D on SLB; FtsZ GTPase assay; non-phase-separated Noc; FtsZ is up-concentrated only in Noc condensates.

Test [2] deals with T1, nucleoid occlusion protein Noc (wild …). The test is described as follows: MST; non-phase-separated Noc; labelled FtsZ strongly partitions into Noc condensates once Noc phase separates.
Test [3] addresses T2, nucleoid occlusion protein Noc (wild type) (B. subtilis, UniProt P37524 1-283).
T2 construct: Nucleoid occlusion protein Noc, a ParB-like protein of B. subtilis; In the microscopy with FtsZ the legends say only 'Noc'; part of it may have been the KCK-tagged, Atto488-labelled form; also called WT Noc; wildtype Noc; source: E. coli Rosetta (DE3), purified (HisTrap, Heparin HP, Superdex-75)
T2 sequence (looked up): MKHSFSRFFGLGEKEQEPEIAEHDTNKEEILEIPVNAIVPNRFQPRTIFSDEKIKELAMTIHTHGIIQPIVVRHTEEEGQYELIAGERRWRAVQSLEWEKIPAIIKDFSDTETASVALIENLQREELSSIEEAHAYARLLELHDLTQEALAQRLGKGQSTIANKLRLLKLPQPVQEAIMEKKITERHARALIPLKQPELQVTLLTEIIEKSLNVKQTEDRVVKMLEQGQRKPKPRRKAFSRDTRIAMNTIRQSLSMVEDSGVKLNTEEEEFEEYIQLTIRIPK
The experiment in a line: recruitment to GUV membranes (confocal microscopy); 3 µM unlabelled WT Noc added to Atto488-Noc R89A and GUVs (70:30 POPC:POPG); the mutant alone at 4 µM with 1 mM CTP and 1.5 µM dsNBS does not bind the GUV. Particulars: both partners purified.

B1: B. subtilis FtsZ (protein)
chain: MLEFETNIDGLASIKVIGVGGGGNNAVNRMIENEVQGVEYIAVNTDAQALNLSKAEVKMQIGAKLTRGLGAGANPEVGKKAAEESKEQIEEALKGADMVFVTAGMGGGTGTGAAPVIAQIAKDLGALTVGVVTRPFTFEGRKRQLQAAGGISAMKEAVDTLIVIPNDRILEIVDKNTPMLEAFREADNVLRQGVQGISDLIATPGLINLDFADVKTIMSNKGSALMGIGIATGENRAAEAAKKAISSPLLEAAIDGAQGVLMNITGGTNLSLYEVQEAADIVASASDQDVNMIFGSVINENLKDEIVVTVIATGFIEQEKDVTKPQRPSLNQSIKTHNQSVPKREPKREEPQQQNTVSRHTSQPADDTLDIPTFLRNRNKRG
Take B1: the binding result in test [1] is “no binding”.

B2: B. subtilis FtsZ labelled with Alexa-Fluor 647 NHS ester (protein)
chain: MLEFETNIDGLASIKVIGVGGGGNNAVNRMIENEVQGVEYIAVNTDAQALNLSKAEVKMQIGAKLTRGLGAGANPEVGKKAAEESKEQIEEALKGADMVFVTAGMGGGTGTGAAPVIAQIAKDLGALTVGVVTRPFTFEGRKRQLQAAGGISAMKEAVDTLIVIPNDRILEIVDKNTPMLEAFREADNVLRQGVQGISDLIATPGLINLDFADVKTIMSNKGSALMGIGIATGENRAAEAAKKAISSPLLEAAIDGAQGVLMNITGGTNLSLYEVQEAADIVASASDQDVNMIFGSVINENLKDEIVVTVIATGFIEQEKDVTKPQRPSLNQSIKTHNQSVPKREPKREEPQQQNTVSRHTSQPADDTLDIPTFLRNRNKRG
modifications: Alexa-Fluor 647 NHS ester
As to B2, the binding result in test [2] is “no binding”.

B3: Atto488-Noc R89A (non-CTP-binding mutant, KCK-tagged, labelled) (natural protein, B. subtilis, UniProt P37524 1-283, looked up)
chain: MKHSFSRFFGLGEKEQEPEIAEHDTNKEEILEIPVNAIVPNRFQPRTIFSDEKIKELAMTIHTHGIIQPIVVRHTEEEGQYELIAGERAWRAVQSLEWEKIPAIIKDFSDTETASVALIENLQREELSSIEEAHAYARLLELHDLTQEALAQRLGKGQSTIANKLRLLKLPQPVQEAIMEKKITERHARALIPLKQPELQVTLLTEIIEKSLNVKQTEDRVVKMLEQGQRKPKPRRKAFSRDTRIAMNTIRQSLSMVEDSGVKLNTEEEEFEEYIQLTIRIPK
modifications: Atto488 maleimide on cysteine (KCK tag)
notes: Nucleoid occlusion protein Noc of B. subtilis with R89A; Labelling efficiency of ~20% is told for KCK-tagged Noc
B3: the binding result in test [3] is “binds”.

Values taken from paper PMC9606368, “Membrane mediated phase separation of the bacterial nucleoid occlusion protein Noc” (Scientific Reports, 2022).
